Measurements as given in article PMC12416549 (2024).
Changes are numbered by the printed parent chain. Names may count otherwise. Each block holds one binder with its values, some of them ahead of it.

Molecular target: T1, TNFR1 (Homo sapiens, UniProt P19438)
T1 chain: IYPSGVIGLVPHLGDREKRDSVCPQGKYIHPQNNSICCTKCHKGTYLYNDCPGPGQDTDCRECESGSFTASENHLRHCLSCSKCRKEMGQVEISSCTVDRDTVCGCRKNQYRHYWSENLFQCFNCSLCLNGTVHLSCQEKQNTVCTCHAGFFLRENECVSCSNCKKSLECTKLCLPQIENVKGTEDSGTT
Experiment: yeast display SC50

B2: K16D (designed binder)
chain: SMEEEVEKAAKEYEKDKKEAIEKHLEKLKAKDKEAAERFLKELEEAAKEYAKDEAKTMSEEEAKRRAKKYKEKVLLSELSEEEQKEIKEAEEKLVRTILKYVEEAAK
apparent Kd (screen): 0.539 nM

B3: A35Q (designed binder)
chain: B2 chain with D16K, A35Q
apparent Kd (screen): 0.869 nM

B5: K18A (designed binder)
chain: B2 chain with D16K, K18A
apparent Kd (screen): 0.79 nM

B7: D53A (designed binder)
chain: B2 chain with D16K, D53A
apparent Kd (screen): 1.27 nM

B8: T57P (designed binder)
chain: B2 chain with D16K, T57P
apparent Kd (screen): 6.43 nM

B10: E34D (designed binder)
chain: B2 chain with D16K, E34D
apparent Kd (screen): 0.718 nM

B11: A30E (designed binder)
chain: B2 chain with D16K, A30E
apparent Kd (screen): 0.277 nM

B13: E14I (designed binder)
chain: B2 chain with E14I, D16K
apparent Kd (screen): 5.84 nM

B14: E44C (designed binder)
chain: B2 chain with D16K, E44C
apparent Kd (screen): 0.446 nM

B16: E3W (designed binder)
chain: B2 chain with E3W, D16K
apparent Kd (screen): 22.2 nM

B17: K29Y (designed binder)
chain: B2 chain with D16K, K29Y
apparent Kd (screen): 0.956 nM

B19: T57F (designed binder)
chain: B2 chain with D16K, T57F
apparent Kd (screen): 0.0729 nM

B20: I21Q (designed binder)
chain: B2 chain with D16K, I21Q
apparent Kd (screen): 0.49 nM

B24: K23D (designed binder)
chain: B2 chain with D16K, K23D
apparent Kd (screen): 0.49 nM

Further lines, results first:

apparent Kd (screen): 2.05 nM
B1: K69T (designed binder)
chain: B2 chain with D16K, K69T

apparent Kd (screen): 0.653 nM
B4: K64M (designed binder)
chain: B2 chain with D16K, K64M

apparent Kd (screen): 1.4 nM
B6: R65V (designed binder)
chain: B2 chain with D16K, R65V

apparent Kd (screen): 0.79 nM
B9: E81S (designed binder)
chain: B2 chain with D16K, E81S

apparent Kd (screen): 0.79 nM
B12: T97C (designed binder)
chain: B2 chain with D16K, T97C

apparent Kd (screen): 0.49 nM
B15: L75Q (designed binder)
chain: B2 chain with D16K, L75Q

apparent Kd (screen): 0.49 nM
B18: E60I (designed binder)
chain: B2 chain with D16K, E60I

apparent Kd (screen): 13.8 nM
B21: R66Y (designed binder)
chain: B2 chain with D16K, R66Y

apparent Kd (screen): 1.54 nM
B22: R65H (designed binder)
chain: B2 chain with D16K, R65H

apparent Kd (screen): 3 nM
B23: K68C (designed binder)
chain: B2 chain with D16K, K68C
